Results: publication PMC4258425

B1: YodA (Bacillus subtilis subsp. subtilis str. 168) (protein)
chain: PLLRFDVIEGRDEKSLQLLLDTAHQAMVEAFGVPERDRYQIVHQHPANELIIQDAGLGFQRTKDMVIISMTSKARTESQKEKLYALLAERLEKKCEISPDDLMVSITENGDADWSFGLGEAQFLNGKL
B2: Bp4401 (Paraburkholderia phymatum STM815) (protein)
chain: PLTRIALRAGKPAAYRQALTEGIQRALIAEFNVPEDDIFMVISEQDESNFVYNRNYLDIQRSDDFVLIQLTVTNSRTQEQKKALYKRIVDNLAEYPGVRREDVFINLVEVLKENWSFGNGIAQYAL

Legend:
Conditions in all cases: 100 mM Na2HPO4 pH 8.0, 22 °C
decarboxylase kinetics = substrate: O=CCC(=O)O; assay: decarboxylase kinetics; assay type: biochemical, Bacillus subtilis
hydratase kinetics [1] = substrate: CC#CC(=O)C(=O)O; assay: hydratase kinetics; assay type: biochemical, Bacillus subtilis
hydratase kinetics [2] = substrate: CC#CC(=O)C(=O)O; assay: hydratase kinetics; assay type: biochemical, Paraburkholderia phymatum

| Protein | Km (decarboxylase kinetics) [mM] | kcat (decarboxylase kinetics) [s⁻¹] | kcat/Km (decarboxylase kinetics) [M⁻¹ s⁻¹] | Km (hydratase kinetics [1]) [mM] | kcat (hydratase kinetics [1]) [s⁻¹] | kcat/Km (hydratase kinetics [1]) [M⁻¹ s⁻¹] | Km (hydratase kinetics [2]) [mM] | kcat (hydratase kinetics [2]) [s⁻¹] | kcat/Km (hydratase kinetics [2]) [M⁻¹ s⁻¹] |
| --- | --- | --- | --- | --- | --- | --- | --- | --- | --- |
| B1 | 6.8 ± 0.94 | 12.2 ± 1.1 | 1300 | 0.27 ± 0.04 | 0.03 ± 0.001 | 111 |  |  |  |
| B2 |  |  |  |  |  |  | 5 ± 0.35 | 14 ± 0.1 | 2800 |
